Positions count from the first letter of the chain named. Numbers in names are those of the source.
T1: human CXCR2 (human, UniProt P25025 1-360)
T1 construct: also called CXC chemokine receptor 2; hCXCR2
T1 sequence: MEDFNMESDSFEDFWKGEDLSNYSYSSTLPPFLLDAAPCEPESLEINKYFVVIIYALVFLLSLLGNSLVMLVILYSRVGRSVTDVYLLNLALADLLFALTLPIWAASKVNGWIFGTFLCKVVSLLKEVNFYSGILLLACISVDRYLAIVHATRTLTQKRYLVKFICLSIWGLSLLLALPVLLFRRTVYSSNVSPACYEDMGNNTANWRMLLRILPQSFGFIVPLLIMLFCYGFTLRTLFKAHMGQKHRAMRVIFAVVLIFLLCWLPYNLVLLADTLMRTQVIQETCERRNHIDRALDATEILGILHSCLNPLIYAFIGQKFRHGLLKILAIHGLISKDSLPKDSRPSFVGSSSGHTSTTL

T2: human CXCR1 (human, UniProt P25024 1-350)
T2 sequence: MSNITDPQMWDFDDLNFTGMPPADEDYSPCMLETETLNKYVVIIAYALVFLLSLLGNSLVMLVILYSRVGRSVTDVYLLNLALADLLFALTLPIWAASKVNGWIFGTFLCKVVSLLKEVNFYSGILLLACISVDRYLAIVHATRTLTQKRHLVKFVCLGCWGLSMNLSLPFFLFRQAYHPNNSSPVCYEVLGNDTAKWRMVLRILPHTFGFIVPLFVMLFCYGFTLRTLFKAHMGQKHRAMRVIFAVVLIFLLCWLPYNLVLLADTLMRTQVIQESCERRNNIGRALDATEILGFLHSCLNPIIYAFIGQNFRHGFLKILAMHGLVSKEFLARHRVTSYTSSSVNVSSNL

B1: BKO-4F10 (antibody, human IgG4 S228P, lambda)
heavy: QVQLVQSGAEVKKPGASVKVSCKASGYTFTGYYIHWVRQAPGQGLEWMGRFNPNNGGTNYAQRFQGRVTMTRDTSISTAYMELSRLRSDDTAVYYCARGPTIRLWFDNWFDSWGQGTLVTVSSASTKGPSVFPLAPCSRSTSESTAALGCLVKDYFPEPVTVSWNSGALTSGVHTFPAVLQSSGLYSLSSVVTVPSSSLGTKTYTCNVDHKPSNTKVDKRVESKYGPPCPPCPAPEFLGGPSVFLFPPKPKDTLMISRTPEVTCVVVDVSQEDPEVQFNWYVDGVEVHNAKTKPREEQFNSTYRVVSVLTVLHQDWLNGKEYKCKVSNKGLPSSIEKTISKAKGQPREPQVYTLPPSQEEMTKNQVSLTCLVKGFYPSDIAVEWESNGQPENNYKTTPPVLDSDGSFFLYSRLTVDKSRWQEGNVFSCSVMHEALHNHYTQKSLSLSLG
light: QSALTQPASVSGSPGQSITISCTGTSSDVGGYNYVSWYQQHPGKAPKLMIYDVSNRPSGISNRFSGSKSGNTASLTISGLQAEDEADYYCSSYTSSSTWVFGGGTKLTVLGQPKAAPSVTLFPPSSEELQANKATLVCLISDFYPGAVTVAWKADSSPVKAGVETTTPSKQSNNKYAASSYLSLTPEQWKSHRSYSCQVTHEGSTVEKTVAPTECS
notes: recombinant human IgG4 S228P, lambda
B2: BKO-5G6_c (antibody, human IgG4 S228P, lambda)
heavy: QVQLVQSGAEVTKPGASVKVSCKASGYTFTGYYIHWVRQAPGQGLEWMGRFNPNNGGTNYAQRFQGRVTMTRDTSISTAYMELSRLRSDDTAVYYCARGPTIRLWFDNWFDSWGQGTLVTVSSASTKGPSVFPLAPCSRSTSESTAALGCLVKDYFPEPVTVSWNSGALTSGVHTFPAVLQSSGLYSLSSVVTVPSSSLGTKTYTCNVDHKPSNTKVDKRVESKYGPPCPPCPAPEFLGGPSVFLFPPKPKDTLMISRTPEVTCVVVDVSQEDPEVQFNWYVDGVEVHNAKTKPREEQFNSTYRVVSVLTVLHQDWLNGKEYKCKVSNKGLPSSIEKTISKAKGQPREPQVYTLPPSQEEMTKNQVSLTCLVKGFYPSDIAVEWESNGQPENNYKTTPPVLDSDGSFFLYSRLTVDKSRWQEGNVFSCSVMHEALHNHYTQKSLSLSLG
light: B1 light with K106T
notes: as for B1
B3: BKO-3D6 (antibody, human IgG4 S228P, lambda, V domains shown)
VH: EVQLVESGGDLVQPGRSLRLSCAASGFTFDDYAMHWVRQAPGKGLKWVSGITWNSGNKRYADSVKGRFTISRDNAKNSLYLQMNSLRAEDTALYYCAKDMKGSGTYFPAFDYWGQGTLVTVSS
VL: not shown
notes: as for B1
B4: BKO-3A9_b (antibody, human IgG4 S228P, lambda, V domains shown)
VH: QVQVQQSGPGLVKPSQTLSLTCAISGDSVSSNSAAWNWIRQSPSRGLEWLGRTYYRSKWYNDYAVSLKRRITIRPDTSRNHFSLHLSSVTPEDTAVYYCVRAYCGGGSCLDYWGQGTLVTVSS
VL: QSALTQPASASGSPGQSITISCTGTSSDVGNYNRVSWYQQHPGKVPKLMIYEGSKRPSGISNRFSGSKSGNTASLTISGLQPEDEADYFCCSYAGSNTLVFGGGTKLTVLG
notes: as for B1
B5: BKO-1D1 (antibody, human IgG4 S228P, lambda, V domains shown)
VH: EVQLLESGGGLVQPGGSLRLSCAASKLTFKNSAMSWVRQAPGKGLEWVSAITGSGGRTYYADSVKGRFTISRDNSKNTLYLQMNSLRAEDTAIYYCAIQMGYWGQGILVTVSS
VL: QSALTQPPSASGSPGQSVTISCTGTSSDVGGYNYVSWYQQHPGKAPKLMIYEVNKRPSGVPARFSGSKSGNTASLTVSGLQAEDEADYYCSSYAGSNNFGVFGGGTKLTVLG
notes: as for B1
B6: BKO-1H3 (antibody, human IgG4 S228P, lambda, V domains shown)
VH: EVQLLESGGGLVQPGGSLRLSCAASGFTLSRSSTSWVRQTPGKGLEWVSAISGSGGRTYYADSVKGRFTISRDNSKNTLYLQMNSLRAEDTAVYYCAIQLGYWGQGILVTVSS
VL: QSALTQPASVSGSPGQSITISCTGTSSDVGGYNYVSWYQQHPGKAPKLMIYDVSNRPSGVSNRFSGSKSGNTASLTISGLQAEDEADYYCSSYTSSSTWVFGGGTKLTVLG
notes: as for B1
B7: BKO-3F4 (antibody, human IgG4 S228P, lambda, V domains shown)
VH: B5 VH with K26G, K30S, N31S, S32Y, T52S, R57K, T58I, I93V, M100V, I107T
VL: B5 VL with I20M, S36T, N54S, S96P
notes: as for B1
B8: BKO-2D8 (antibody, human IgG4 S228P, lambda, V domains shown)
VH: B6 VH with F27Y, L29F, S30T, R31S, S33T, T34M, T40A, S49T, S54R, Y102N
VL: B5 VL with V29I, M49V, K55M, S96N, N97D, T109S
notes: as for B1
B9: BKO-8H8_b (antibody, human IgG4 S228P, lambda, V domains shown)
VH: EVQLLESGGGLVQPGGSLRLSCAASGLTVSSYAMSWVRQAPGKGLEWVSAISGSGGKIYYADSVKGRFTISRDNSKNTLYLQMNSLSAEDTAVYYCAIQVGYWGQGTLVTVSS
VL: B5 VL with I20M, S36T, M49V, N54S, A62V, S96P, V101I
notes: as for B1
B10: BKO-1B10 (antibody, human IgG4 S228P, lambda, V domains shown)
VH: QLQLQESGPGLVKPSETLSLTCTVSGGSIRTSSYYWGWIRQPPGKGLEYIGSIYYSGTTYYNPSLKSRVTMSVDTSKNQFSLKLSSVTAADTAVYYCARHGRVREVPPFDYWGQGTLVTVSS
VL: SSELTQDPAVSVALGQTVRITCQGDSLRYYYASWYQQKPGQAPVLVIYDENSRPSGIPDRFSGSSSGNTASLRITGTQAEDEADYYCNSRDTSGNHWAFGGGTKLTVLG
notes: as for B1
B11: BKO-1A1 (antibody, human IgG4 S228P, lambda, V domains shown)
VH: B10 VH with L84M, T92S
VL: B10 VL with R73S
notes: as for B1
B12: BKO-4A8 variant VH M96A (antibody, human IgG4 S228P, lambda, V domains shown)
VH: B6 VH with L29F, R31S, S33T, T34M, T40A, S54R, G56R, R57N, K76R, L100A
VL: B5 VL with T23I, G43D, A62D, S96N
notes: IgG4 S228P, lambda; parental light chain; also called 4A8 VH M96A
B13: BKO-4A8 variant VL N94Y (antibody, human IgG4 S228P, lambda, V domains shown)
VH: B6 VH with L29F, R31S, S33T, T34M, T40A, S54R, G56R, R57N, K76R, L100M
VL: B5 VL with T23I, G43D, A62D, S96Y
notes: IgG4 S228P, lambda; parental heavy chain; also called 4A8 VL N94Y
B14: BKO-4A8 variant VH M96Q (antibody, human IgG4 S228P, lambda, V domains shown)
VH: B6 VH with L29F, R31S, S33T, T34M, T40A, S54R, G56R, R57N, K76R, L100Q
VL: B5 VL with T23I, G43D, A62D, S96N
notes: IgG4 S228P, lambda; parental light chain; also called 4A8 VH M96Q
B15: BKO-4A8 variant VL N95aQ (antibody, human IgG4 S228P, lambda, V domains shown)
VH: B6 VH with L29F, R31S, S33T, T34M, T40A, S54R, G56R, R57N, K76R, L100M
VL: B5 VL with T23I, G43D, A62D, S96N, N98Q
notes: IgG4 S228P, lambda; parental heavy chain; also called 4A8 VL N95aQ
B16: BKO-4A8 variant VL N94S (antibody, human IgG4 S228P, lambda, V domains shown)
VH: B6 VH with L29F, R31S, S33T, T34M, T40A, S54R, G56R, R57N, K76R, L100M
VL: B5 VL with T23I, G43D, A62D
notes: IgG4 S228P, lambda; parental heavy chain; also called 4A8 VL N94S
B17: BKO-4A8 variant VH M96K (antibody, human IgG4 S228P, lambda, V domains shown)
VH: B6 VH with L29F, R31S, S33T, T34M, T40A, S54R, G56R, R57N, K76R, L100K
VL: B5 VL with T23I, G43D, A62D, S96N
notes: IgG4 S228P, lambda; parental light chain; also called 4A8 VH M96K
B18: BKO-4A8 variant VL N52S (antibody, human IgG4 S228P, lambda, V domains shown)
VH: B6 VH with L29F, R31S, S33T, T34M, T40A, S54R, G56R, R57N, K76R, L100M
VL: B5 VL with T23I, G43D, N54S, A62D, S96N
notes: IgG4 S228P, lambda; parental heavy chain; also called 4A8 VL N52S
B19: BKO-4A8 variant VH N56S (antibody, human IgG4 S228P, lambda, V domains shown)
VH: B6 VH with L29F, R31S, S33T, T34M, T40A, S54R, G56R, R57S, K76R, L100M
VL: B5 VL with T23I, G43D, A62D, S96N
notes: IgG4 S228P, lambda; parental light chain; also called 4A8 VH N56S
B20: BKO-4A8 variant VL N94K (antibody, human IgG4 S228P, lambda, V domains shown)
VH: B6 VH with L29F, R31S, S33T, T34M, T40A, S54R, G56R, R57N, K76R, L100M
VL: B5 VL with T23I, G43D, A62D, S96K
notes: IgG4 S228P, lambda; parental heavy chain; also called 4A8 VL N94K

These binders were tested against T1, human CXCR2 (assay: flow cytometry, transfected Expi293F cells).
Method: (§1) Harvested cells were resuspended in FACS buffer (1×PBS+0.5% (w/v) bovine serum albumin (BSA)+2 mM EDTA pH 7.2). Approximately 2×10⁵ cells were added per well in a 96-well round-bottomed plate. Cells were pelleted by centrifugation at 400 g for 5 mins at 4° C. and supernatants discarded. 25 μL of each test antibody or control antibody was added to the cells and incubated for 30 minutes at 4° C. Cells were washed twice in 100 μL FACS buffer followed by centrifugation at 400 g for 5 mins at 4° C.
(§2) For detection, 50 μL of secondary antibody (Table 2) was added to relevant samples. Commercially available antibodies that bound to transfected CXCR family members were used as positive controls to ensure that the cells were expressing the receptors. Cells were washed twice in 200 μL of FACS buffer followed by centrifugation at 400 g for 5 mins at 4° C. Before sample acquisition, cells were resuspended in 100 μL of FACS buffer. Samples were acquired using the high throughput sampler on a FACSCanto™ II cytometer (Beckton-Dickinson).
(§3) These antibody variable regions were then generated by gene synthesis and subcloned into mammalian expression vectors as described in General Methods. Antibodies were produced by co-expression of heavy and light chain plasmids in Expi293F™ cells and purified by protein A column chromatography as described in General Methods. Where several heavy and/or light chains were identified from the same hybridoma cells, each heavy chain was paired with each light chain and the resulting antibodies given suffix a, b, c, etc. Purified antibodies were desalted into Sorensen's PBS pH 5.8 and tested by flow cytometry for binding to Expi293F™ cells transfected with human CXCR2 or human CXCR1 and mock transfected Expi293F™ cells.

binding result	Binder
binds	B1
binds	B2
binds	B3
binds	B4
binds	B5
binds	B6
binds	B7
binds	B8
binds	B9
binds	B10
binds	B11

These binders were tested against T2, human CXCR1 (assay: flow cytometry, transfected Expi293F cells).
Method: as §1, §2, §3

binding result	Binder
no binding	B1
no binding	B2
no binding	B3
no binding	B4
no binding	B5
no binding	B6
no binding	B7
no binding	B8
no binding	B9
no binding	B10
no binding	B11

These binders were tested against T1, human CXCR2 (assay: flow cytometry, CXCR2-transfected Expi293F cells).
Method: as §1, §2
Each variant heavy chain was co-expressed with the parental light chain and vice versa.

Fold change in binding relative to BKO-4A8 [fold]	Binder
1.5	B12
0.5	B13
1.5	B14
1	B15
1	B16
1	B17
1	B18
1	B19
1.33	B20

What follows are binders tested against T1, human CXCR2 (assay: cell-based or functional assay).

IC50, CXCL1, Tango assay [nM]	IC50, CXCL8, Tango assay [nM]	Binder
0.14	0.126	B12
0.164	0.105	B13
0.33	0.14	B14
0.213	0.084	B15
0.149	0.169	B16
0.135	0.091	B17
0.214	0.126	B18
0.158	0.129	B19
0.123	0.113	B20

From patent publication US20240301076A1 (CEPHALON, published 2024)
